# From the DeepSol protein solubility set
# Test: soluble on expression in E. coli; label from the status in PepcDB or PDB records
row,Sequence,soluble on expression in E. coli
1,MQPLKRIRHPSGSEILFDAKWHQYKLGGTALRSVSKLLDRFFPFDEKRVLELVSKKTGQPVDKIKQGWSRQALLGKNVHEFIECKLLKKPPPTFTLLMKRKQAREAARPADATGPAAITTTPLEDEVLHGEEALYLPVAEMAVEKVLSTYDVLGAEQVIAAPGWGIAGTIDFMGRNRRTNRVLIGDWKTTGSVTSNFRFGSFETACPGALRHLPNSKMYRYAMQVTIYGEILAREQYFEKQFFDAQLRASLTASLAVPSTDVTPPAPPAKTRGRPSSRAAAPAKSDIGSDVESLLKTFYRNNTEQRFEYGIVQLAKGEDGGVVAEFKEVTPETVMPPDCPEMTFDSLLQRVMEGVGV,soluble
2,MQPNDITFYQRFEADILAGHKTISIRDDSESHFKAGDILRVGRFEDNQYFCNIEVLSVSPITLDELTQPHAKQENMGLDELKEVIRGIYPNEIIFWVIQFSLKEYFNEEKCVREIIITDRKFN,soluble
3,MQPPPRKVKPAQEVKLRFLEQLSILQTWQQREADLLEDIRSYSKQRAAIEREYGQALQKLAGPFLKREGHRSGEMDSRGRTVFGAWRCLLDATVAGGQTRLQASDRYRDLAGGTGRSAKEQVLRKGTENLQRAQAEVLQSVRELSRSRKLYGQRERVWALAQEKAADVQARLNRSDHGIFHSRTSLQKLSTKLSAQSAQYSQQLQAARNEYLLNLVATNAHLDHYYQEELPALLKALVSELSEHLRDPLTSLSHTELEAAEVILEHAHRGEQTTSQVSWEQDLKLFLQEPGVFSPTPPQQFQPAGTDQVCVLEWGAEGVAGKSGLEKEVQRLTSRAARDYKIQNHGHRVLQRLEQRRQQASEREAPSIEQRLQEVRESIRRAQVSQVKGAARLALLQGAGLDVERWLKPAMTQAQDEVEQERRLSEARLSQRDLSPTAEDAELSDFEECEETGELFEEPAPQALATRALPCPAHVVFRYQAGREDELTITEGEWLEVIEEGDADEWVKARNQHGEVGFVPERYLNFPDLSLPESSQDSDNPCGAEPTAFLAQALYSYTGQSAEELSFPEGALIRLLPRAQDGVDDGFWRGEFGGRVGVFPSLLVEELLGPPGPPELSDPEQMLPSPSPPSFSPPAPTSVLDGPPAPVLPGDKALDFPGFLDMMAPRLRPMRPPPPPPAKAPDPGHPDPLT,soluble
4,MQPTSITVASYNLRNANGGDSINGNGWGQRYPVIAQIVQYHDFDIFGTQECFIHQLKDMKEALPGYDYIGVGRDDGKEKGEHSAIFYRTDKFDVIEKGDFWLSETPDVPSKGWDAVLPRICSWGHFKCKDTGFEFLFFNLHMDHIGKKARVESAFLVQDKMKELGKGKELPAILTGDFNVDQTHQSYDAFVSKGVLCDSYEKAGFRYAINGTFNDFDPNSFTESRIDHIFVSPSFQVKRYGVLTDTYRSIVGKGEKKQANDCPEEIDIKTYQARTPSDHFPVKVELEFDQRQQKLEHHHHHH,soluble
5,MQQEHRECIEQCYECAAACDICASSCLREDNVEMMKHCIQLDMQCAAICRLAAQFMALESEYSQKLCRLCADICKACAEECARHDHDHCQNCARACSQCADACLKMAALEHHHHHH,not soluble
6,MQQKDAVPDTAKKLKAPLTGLKTEQKVTERRPVAVVVNNHPKARPQSGLSKADIVIEALAEGQITRFLAIFQSQMPETVGPVRSAREYFVTLSNGFDSIFVHHGWSPGAKKQLESGAADYMNGLDFDGSLFWRADFSKPPHNSYTSYDYIKKAAEQKGYKLKQETNPLLFQTSDAKPANESYNVRVDYGTNNVTNLVEYNYDKKAEFYTRSSDGVITTDRETGKPVAMQNIFIVEASHHIIDQDGRRDIDLESGGKGLLFQHGNVIETDWKQVNGRIVPVKDGKWLPFVPGKTWINIVPDLDAASISKGEGVLEHHHHHH,soluble
7,MQQLKAKSLEMRTPQATKTAVLVIGGAEDKVHGREILRTFVARAGASKAYITIIPSASREPAIIGGRYIRIFEEMGAEKVEILDIREREQCDSSQIKASLEACTGVFLTGGDQLRLCGVLSDTAAMDIIRQRVRAGQLTLAGTSAGAAVMGHHMIAGGGSGETPNRSLVDMATGLGFIPEVIVDQHFHNRNRMGRLVSAIAAHPDRLGIGIDEDTCAVFERDGWLQVMGKGSVTIVDPTELTHTNEPLVSANEPLTVHNLRLHILSYGDRFHLYQRTVLPAVHRISS,soluble
8,MQQQCDTVSAWQSLRGPGTGGYYLFKTTEGGKTDCTYVKGSNFNDAAQTATYTYGNMGSGNQMTQQTASASISGNAIVVGTDHSEVMYSDGSTCDVVRLNGQIELWIHSSATSNTGNLNSCCTDKFNQEKGSRPEHVVYRSTCPNMPQ,soluble
9,MQQVPDKIYVSRSRLKSNRRRLINETDVERLFSRNGFQIIHPQELTIKEQINLFRHAQVIAGPLGSAMYNCVFQTKPTKKLLLTYEKFIKMSDLLINTSTNGLLYYFAGTEHKQNKSPSNTEWSINLNQLEHHHHHH,not soluble
10,MQRLFVYGSLGPGRPNEHLMQKIGGQWQAASLRGRLLEKGWGAGMGFPGLAIDADGEEIHGHVFVSDRLAEHWPALDEFEGSEYRRVATRVTLADGAQVDAYVYALRD,not soluble
11,MQRSLQIFCIMSAIAMAYSQGSRDDNQSAKRNDFSRDIMSFGKRSGNTADLYDRRIMAFGKRQPSYDRDIMSFGKRSAPSDFSRDIMSFGKRSSSMYDRDIMSFGKRSPVDYDRPIMAFGKRAEDYERQIMAFGRRK,not soluble
12,MQSFTADINEINITNGKLDFSDSSLTPKFSAGIYSLNGDITGLSSNEDSRAKIDLKGKVDKYAPVIIKGSVNPLSHDAFTDIDMLFNGIELTTFTPYSGKFAGYAIDKGKLSLGLNYKLSNNKLVAENNVTLDQLTLGEVVNSEEATSLPIKFALSLLEHHHHHH,not soluble
13,MQSPPGKPEIHKCRSPDKETFTCWWNPGTDGGLPTNYSLTYSKEGEKTTYECPDYKTSGPNSCFFSKQYTSIWKIYIITVNATNQMGSSSSDPLYVDVTYIVEPEPPRNLTLEVKQLKDKKTYLWVKWSPPTITDVKTGWFTMEYEIRLKPEEAEEWEIHFTGHQTQFKVFDLYPGQKYLVQTRCKPDHGYWSRWSQESSVEMPNDFTLKDRSRSHHHHHH,soluble
14,MQSWYLLYCKRGQLQRAQEHLERQAVNCLAPMITLEKIVRGKRTAVSEPLFPNYLFVEFDPEVIHTTTISATRGVSHFVRFGASPAIVPSAVIHQLSVYKPKDIVDPAPPYPGDKVIITEGAFEGFQAIFTEPDGEARSMLLLNLINKEIKHSVKNTEFRKL,not soluble
15,MQTLLLALFSLAMVQAMRDQSIAVKGRLICGDKPAANVRIKLWEEDSGPDPDDLLEAGYTDSNGEFQLSGGEAELTPIDPIFKVYHDCDDKYIPGHRKVKFLIPKSYITQGKTPKKTFDLGVLNLETIFPKEERELIVSRKRRHHPKQYINEEDSF,not soluble
16,MQVNEEGFAIDDKEYAMKTELKFASKHSSRLKIERNVMESYSKCDAQCKEHFSELIDFGQSPVWKWIVMTIVGPSLEELKMKYKPSDIPPSTILQCGLQTMKAIHDFHQIGFLHRDIKPANYCIGYGSKSETIYVLDFGLARKYRLPNGQVRPPRPKTKMIGTPRYCSRASHRCEELGRRDDYESWFFMFIDLVDTTLIDWKGLTRPDAYAKKQELFTKLKTYEKHPMFKVISIYLDNLVYDSEVKFGVLREAITDYARGCKLTLKEPLVWFNQSTCPSPSTAPGTGASRMATNIDLKSIASDRNEENSLDRSKTGTLSFNNSKNKKPSRY,not soluble
17,MQVPQDGEDLAGQPWYHGLLSRQKAEALLQQNGDFLVRASGSRGGNPVISCRWRGSALHFEVFRVALRPRPGRPTALFQLEDEQFPSIPALVHSYMTGRRPLSQATGAVVSRPVTWQGPLRRSFSEDTLMDGPARIEPLRARKWSNSQPADLAHMGRSREDPAGMEASTMPISALPRTSSDPVLLKAPAPLGTVADSLRASDGQLQAKAPTKPPRTPSFELPDASERPPTYCELVPRVPSVQGTSPSQSCPEPEAPWWEAEEDEEEENRCFTRPQAEISFCPHDAPSCLLGPQNRPLEPQVLHTLRGLFLEHHPGSTALHLLLVDCQATGLLGVTRDQRGNMGVSSGLELLTLPHGHHLRLELLERHQTLALAGALAVLGCSGPLEERAAALRGLVELALALRPGAAGDLPGLAAVMGALLMPQVSRLEHTWRQLRRSHTEAALAFEQELKPLMRALDEGAGPCDPGEVALPHVAPMVRLLEGEEVAGPLDESCERLLRTLHGARHMVRDAPKFRKVAAQRLRGFRPNPELREALTTGFVRRLLWGSRGAGAPRAERFEKFQRVLGVLSQRLEPDR,soluble
18,MQVVSSATLPPTVASADLAIVGGRSSDEDVIKYSAIQTIKQEQQQQQQQQSNTALPSYNFPFFNGMQNDFPPNRMLYNDNTMQKSENDHFTGMNLSTSASSSGNSTSSKDQSRRQFYTESSNSSGNGAAATSGSNGSSSSTESKSDVFNISMNAFAATPGSKSEDHNIPSFNMLSSYYTGALKLSNSTSFANPDPYQILGPTSKNLAHSGSGQTQLWQFLLELLSDKRYSEVITWEGTQGEFKLVDPDEVARKWGERKSKPNMNYDKMSRALRYYYDKNIMAKVHGKRYAYKFDFQGIAQALQPPTASHPQDYFNSHAMGRIAPDFSSWTSANYRSLNIAGFNNGSTIFNPSVNYSAFGATGTSNNLSAARAFPLYR,not soluble
19,MRADGFVPLQALLQLPQFHSFSIEDVQLVVNTNEKQRFTLQPGEPSTGLLIRANQGHSLQVPELELTPLETPQALPLTLVHGTFWKHWPSILLKGLSRQGRTHIHLASGLPGDPGVISGIRPNCEVAVFIDGPLALTDGIPFFCSANGVILTPGNAEGFLLPKYFKEALQLRPTRKPLSLAGDKETETQSGPKLSSRGGRRKIQQ,soluble
20,MRAMRLVEIGKPLKLEDIPIPKPKGSQVLIKIEAAGVCHSDVHMRQGRFGNLRIVEDLGVKLPVTLGHEIAGRIEEVGDEVVGYSKGDLVAVNPWEGEGNCYYCRIGEEHLCDSPRWLGINYDGAYAEYVLVPHYKYLYKLRRLSAVEAAPLTCSGVTTYRAVRKASLDPSKTLVVIGAGGGLGTMAIQIAKAVSGATIIGVDVREEALEAAKRAGADYVINASSQDPVSEIRRITQGKGADAVIDLNNSEKTLSIYPYVLAKQGKYVMVGLFGADLKYHAPLITLNEVQFIGSLVGNQSDFLGIMSLAEAGKVKPMVTKTMKLEEANEAIDNLENFKAVGRQVLVP,soluble
21,MRCKGFLFDLDGTLVDSLPAVERAWSNWARRHGLAPEEVLAFIHGKQAITSLRHFMAGKSEADIAAEFTRLEQIEATETEGITALPGAIALLNHLNKAGIPWAIVTSGSMPVARARHKIAGLPAPEVFVTAERVKRGKPEPDAYLLGAQLLGLAPQECVVVEDAPAGVLSGLAAGCHVIAVNAPADTPRLNEVDLVLHSLEQITVTKQPNGDVIIQ,not soluble
22,MRCPWLIRVGVDIGGTFTDLIVFDEGSGRLESLKVLTTPREPWVGVIRALEEASVDIEGVDVVIHATTLGTNMFLGQEGLEPPSAVLITNRGFRDVLEIGRQNRPELYNLYFTRPKPLVPRDRRLVVKGRIDARGNVVEDIDRGEVARLAKEWCGRADVFIVSMLNSHINPVHEDEIGSIITREC,not soluble
23,MRDTFPSLQAQHLHGIDEQALRPAFSTHKPRILILYGSLREVSYSRLLAFEAGRLLERLGCEVRIFDPKGLPLPDETPASHAKVQELRDLSQWSEGQVWVSPERHGAMTGIMKSQIDWIPLAVGSVRPTQGKTLAVMEVSGGSQSFNAVNQMRILGRWMRMITIPNQSSVARAFQEFDEDGRMRPSSYYDRVVDVCEELVKFTLLTRDASAYLTDRYSERKEQAAELEKRVSLKS,not soluble
